B1: REALRWDAPLRDPAPRQLL (peptide)
peptide: REALRWDAPLRDPAPRQLL
B2: WSGPIGVSWGLRAAAAGFQLL-OH (peptide)
peptide: WSGPIGVSWGLRAAAAGFQLL-OH
B3: PYILKRQLYENKPRRPYIL (peptide)
peptide: PYILKRQLYENKPRRPYIL
B4: H-RQFL-OH (peptide)
peptide: H-RQFL-OH
B5: H-RQYL-OH (peptide)
peptide: H-RQYL-OH
B6: H-FYIL-OH (peptide)
peptide: H-FYIL-OH
B7: H-PQLL-OH (peptide)
peptide: H-PQLL-OH
B8: H-RYYL-OH (peptide)
peptide: H-RYYL-OH
B9: H-RYIL-OH (peptide)
peptide: H-RYIL-OH
B10: H-KQLL-OH (peptide)
peptide: H-KQLL-OH
B11: LQLL (peptide)
peptide: LQLL
B12: IQLL (peptide)
peptide: IQLL
B13: H-RYFL-OH (peptide)
peptide: H-RYFL-OH
B14: H-PYLL-OH (peptide)
peptide: H-PYLL-OH
B15: H-PYIL-OH (peptide)
peptide: H-PYIL-OH
B16: APLRDPAPRQLL (peptide)
peptide: APLRDPAPRQLL
B17: LYENKPRRPYIL (peptide)
peptide: LYENKPRRPYIL
B18: GGSGGGGSGGGGSGGRQLL-OH (peptide)
peptide: GGSGGGGSGGGGSGGRQLL-OH
B19: REAPRWDAPLRDPALRQLL (peptide)
peptide: REAPRWDAPLRDPALRQLL
B20: REAPRWDAPLRDPALRYYL (peptide)
peptide: REAPRWDAPLRDPALRYYL
B21: REAPRWDAPLRDPALRYLL (peptide)
peptide: REAPRWDAPLRDPALRYLL
B22: REAPRWDAPLRDPALFQLL (peptide)
peptide: REAPRWDAPLRDPALFQLL
B23: Biotin-GGRQLL-OH (peptide)
peptide: Biotin-GGRQLL-OH
SMILES: CC(C)C[C@H](NC(=O)[C@H](CC(C)C)NC(=O)[C@H](CCC(N)=O)NC(=O)[C@H](CCCNC(=N)N)NC(=O)CNC(=O)CNC(=O)CCCC[C@@H]1SC[C@@H]2NC(=O)N[C@@H]21)C(=O)O
B24: Biotin-GGSRQLL-OH (peptide)
peptide: Biotin-GGSRQLL-OH
SMILES: CC(C)C[C@H](NC(=O)[C@H](CC(C)C)NC(=O)[C@H](CCC(N)=O)NC(=O)[C@H](CCCNC(=N)N)NC(=O)[C@H](CO)NC(=O)CNC(=O)CNC(=O)CCCC[C@@H]1SC[C@@H]2NC(=O)N[C@@H]21)C(=O)O
B25: Biotin-GGSGGFQLL-OH (peptide)
peptide: Biotin-GGSGGFQLL-OH
SMILES: CC(C)C[C@H](NC(=O)[C@H](CC(C)C)NC(=O)[C@H](CCC(N)=O)NC(=O)[C@H](Cc1ccccc1)NC(=O)CNC(=O)CNC(=O)[C@H](CO)NC(=O)CNC(=O)CNC(=O)CCCC[C@@H]1SC[C@@H]2NC(=O)N[C@@H]21)C(=O)O
B26: Biotin-RQLL-OH (peptide)
peptide: Biotin-RQLL-OH
SMILES: CC(C)C[C@H](NC(=O)[C@H](CC(C)C)NC(=O)[C@H](CCC(N)=O)NC(=O)[C@H](CCCNC(=N)N)NC(=O)CCCC[C@@H]1SC[C@@H]2NC(=O)N[C@@H]21)C(=O)O
B27: Biotin-GGSGGGGFQLL-OH (peptide)
peptide: Biotin-GGSGGGGFQLL-OH
SMILES: CC(C)C[C@H](NC(=O)[C@H](CC(C)C)NC(=O)[C@H](CCC(N)=O)NC(=O)[C@H](Cc1ccccc1)NC(=O)CNC(=O)CNC(=O)CNC(=O)CNC(=O)[C@H](CO)NC(=O)CNC(=O)CNC(=O)CCCC[C@@H]1SC[C@@H]2NC(=O)N[C@@H]21)C(=O)O
B28: Biotin-GGSGGGGRQLL-OH (peptide)
peptide: Biotin-GGSGGGGRQLL-OH
SMILES: CC(C)C[C@H](NC(=O)[C@H](CC(C)C)NC(=O)[C@H](CCC(N)=O)NC(=O)[C@H](CCCNC(=N)N)NC(=O)CNC(=O)CNC(=O)CNC(=O)CNC(=O)[C@H](CO)NC(=O)CNC(=O)CNC(=O)CCCC[C@@H]1SC[C@@H]2NC(=O)N[C@@H]21)C(=O)O

Residues, ends and D or L forms follow the SMILES beside them. No end group written: not given here. *: point of attachment. Biotin = O=C1N[C@H]2[C@H](CS[C@H]2CCCCC(=O)*)N1

T1 sequence (Q99523 78-755 V650M limits assumed): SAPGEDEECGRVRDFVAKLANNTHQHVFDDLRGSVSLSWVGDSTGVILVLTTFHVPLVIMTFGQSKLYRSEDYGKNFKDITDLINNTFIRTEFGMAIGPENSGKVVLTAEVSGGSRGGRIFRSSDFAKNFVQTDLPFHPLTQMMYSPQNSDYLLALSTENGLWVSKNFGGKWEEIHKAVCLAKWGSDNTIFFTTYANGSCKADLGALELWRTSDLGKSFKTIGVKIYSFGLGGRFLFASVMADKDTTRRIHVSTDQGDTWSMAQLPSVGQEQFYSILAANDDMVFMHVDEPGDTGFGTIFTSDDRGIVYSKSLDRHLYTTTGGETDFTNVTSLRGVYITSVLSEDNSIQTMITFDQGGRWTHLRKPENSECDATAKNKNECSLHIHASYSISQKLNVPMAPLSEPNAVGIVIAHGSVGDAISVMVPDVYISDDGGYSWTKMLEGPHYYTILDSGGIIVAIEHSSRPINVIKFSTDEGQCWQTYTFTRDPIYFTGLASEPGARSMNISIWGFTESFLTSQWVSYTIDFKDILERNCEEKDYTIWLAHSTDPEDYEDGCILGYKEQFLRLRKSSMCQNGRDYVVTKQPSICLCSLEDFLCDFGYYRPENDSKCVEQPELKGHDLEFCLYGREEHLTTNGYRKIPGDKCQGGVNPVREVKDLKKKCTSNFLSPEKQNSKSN

One experiment has as its target T1, Sortilin-6His (Homo sapiens (Human), UniProt Q99523 78-755).
T1 construct: In MST it was labelled non-covalently with RED-tris-NTA; also called soluble ectodomain of sortilin-6his; fluorescent sortilin-6his
Nature of the experiment: MST on labelled sortilin-6his ectodomain; KD score: +++ <25 nM, ++ 25-250 nM, + 250-2500 nM, 0 >2500 nM.
Settings: not given
The term KD denotes the concentration at which binding is half-saturated. As to B1, the KD is under 25 nM. The same measure, in the same setting: in the case of B2 it was under 25 nM; in that of B3, under 25 nM; in that of B4, 250 to 2500 nM. Still for that read-out and setting: in the case of B5 it was 250 to 2500 nM; in that of B6, 250 to 2500 nM; in that of B7, 25 to 250 nM. On the same count and under the same terms, under B8 stands 25 to 250 nM; under B9, 250 to 2500 nM. With B10, the KD was 25 to 250 nM. The same measure, in the same setting: under B11 stands 250 to 2500 nM; under B12, 250 to 2500 nM; under B13, 250 to 2500 nM. On the same count and under the same terms, in the case of B14 it was 250 to 2500 nM; in that of B15, 25 to 250 nM.

Take B16: the KD fell in the range of 25 to 250 nM. Turning to B17, the KD lay within 25 to 250 nM. Still for that read-out and setting: in the case of B18 it was 25 to 250 nM. Still for that read-out and setting: in the case of B19 it was under 25 nM; in that of B20, 25 to 250 nM; in that of B21, under 25 nM. On the same count and under the same terms, in the case of B22 it was under 25 nM.

Another experiment concerns the target T1, Sortilin-6His. In words: MST on labelled sortilin-6his ectodomain; KD score: ++ <100 nM, + 100-2000 nM.
Settings: not given
B23: the KD is under 100 nM. The same measure, in the same setting: in the case of B24 it was 100 to 2000 nM. Still for that read-out and setting: under B25 stands under 100 nM. Still for that read-out and setting: under B26 stands under 100 nM; under B27, under 100 nM. On to B28, for which the KD is under 100 nM.

The next experiment addresses T2, soluble ectodomain of sortilin-6his (Homo sapiens, UniProt Q99523, V650M).
T2 construct: the soluble ectodomain of sortilin-6his is measured by microscale thermophoresis (MST)
In words: MST binding to soluble ectodomain of sortilin-6his. The following applies: Table 1; biotin-linker-peptide bifunctional compounds; MST; read-out: KD score, binding to sortilin (Kd).
What is called Kd is the concentration at which binding is half-saturated. For the molecule `CC(C)C[C@H](NC(=O)[C@H](CC(C)C)NC(=O)[C@H](CCC(N)=O)NC(=O)[C@H](CCCNC(=N)N)NC(=O)CCCC[C@@H]1SC[C@@H]2NC(=O)N[C@@H]21)C(=O)O` [compound 154] (Biotin-RQLL-OH), the Kd is under 100 nM.

Staying with this experiment, now noted: Table 3; monofunctional peptides; MST; read-out: KD score, binding to sortilin (Kd).
As to H-GVSWGLR-OH [compound 52], the Kd was over 2500 nM. The same measure, in the same setting: under REAPRWDAPLRDPALRYYL-OH [compound 61] stands 25 to 250 nM. With `CC(C)C[C@H](NC(=O)[C@H](CC(C)C)NC(=O)[C@H](CCC(N)=O)NC(=O)[C@@H]1CCCN1)C(=O)O` [compound 25] (H-PQLL-OH), the Kd lay within 25 to 250 nM. On to `CC(C)C[C@H](NC(=O)[C@H](CC(C)C)NC(=O)[C@H](Cc1ccc(O)cc1)NC(=O)[C@@H](N)CCCNC(=N)N)C(=O)O` [compound 27, RYLL-OH] (H-RYLL-OH), for which the Kd lay in the range of 25 to 250 nM. Still for that read-out and setting: under `CC(C)C[C@H](N)C(=O)N[C@@H](Cc1ccc(O)cc1)C(=O)N[C@@H](CCC(=O)O)C(=O)N[C@@H](CC(N)=O)C(N)=O` [compound 64] (H-LYEN-NH2; N-terminus assumed) stands over 2500 nM. Take PIPLV [compound 197, PIPLV-OH]: the Kd is over 2500 nM. On the same count and under the same terms, in the case of `CC(C)C[C@H](NC(=O)[C@H](CC(C)C)NC(=O)[C@H](CCC(N)=O)NC(=O)[C@@H](N)CCCNC(=N)N)C(=O)O` [compound 22, RQLL-OH] (H-RQLL-OH) it was 25 to 250 nM.

For `CC(C)C[C@H](NC(=O)[C@H](CCCNC(=N)N)NC(=O)[C@H](CCCNC(=N)N)NC(=O)[C@H](CCCCN)NC(=O)[C@H](CCCCN)NC(=O)[C@H](Cc1ccccc1)NC(=O)[C@H](CC(C)C)NC(=O)[C@@H](N)CCCNC(=N)N)C(=O)N[C@@H](CCCNC(=N)N)C(=O)N[C@@H](CO)C(=O)N1CCC[C@H]1C(=O)N[C@@H](CCCNC(=N)N)C(=O)N[C@H](C(=O)N[C@@H](CC(C)C)C(=O)N[C@@H](Cc1ccccc1)C(N)=O)C(C)C` [compound 47], the Kd was over 2500 nM.

The same experiment, now with this note: Table 4; small molecule bifunctional compounds; MST; read-out: KD score, binding to sortilin (Kd).
`CC(C)(C)CC[C@H](NC(=O)c1ccc(Oc2cccc(C(=O)NCCOCCOc3ncc(-c4ccc5c(n4)N(Cc4cccnc4C#N)C(C)(C)C5=O)cn3)c2)nc1)C(=O)O` [BF053]: the Kd fell in the range of 1 to 10 nM. Consider `CC(C)(C)CC[C@H](NC(=O)c1ccc(Oc2cccc(OCC(=O)NCCOCCOCCOCCOc3ncc(-c4ccc5c(n4)N(Cc4cccnc4C#N)C(C)(C)C5=O)cn3)c2)nc1)C(=O)O` [BF139], for which the Kd fell in the range of 1 to 10 nM. For `C[C@@H]1CN(c2ncc(-c3ccc4c(n3)N(Cc3cccnc3C#N)C(C)(C)C4=O)cn2)CCN1C(=O)COCCCCCCNc1cccc(Oc2ccc(C(=O)N[C@@H](CCC(C)(C)C)C(=O)O)cn2)c1` [BF039], the Kd lay in the range of 1 to 10 nM. The same measure, in the same setting: in the case of `CC(C)(C)CC[C@H](NC(=O)c1ccc(Oc2cccc(C(=O)NCCOCCOCCOCCOCCOc3ncc(-c4ccc5c(n4)N(Cc4cccnc4C#N)C(C)(C)C5=O)cn3)c2)nc1)C(=O)O` [BF052] it was 1 to 10 nM; in that of `C[C@@H]1CN(c2ncc(-c3ccc4c(n3)N(Cc3cccnc3C#N)C(C)(C)C4=O)cn2)CCN1C(=O)COCCOCCOCCOCCNC(=O)c1cccc(Oc2ccc(C(=O)N[C@@H](CCC(C)(C)C)C(=O)O)cn2)c1` [BF031, (2S)-2-[[6-[3-[2-[2-[2-[2-[2-[(2R)-4-[5-[1-[(2-cyano-3-pyridyl)methyl]-2,2-dimethyl-3-oxo-pyrrolo[2,3-b]pyridin-6-yl]pyrimidin-2-yl]-2-methyl-piperazin-1-yl]-2-oxo-ethoxy]ethoxy]ethoxy]ethoxy]ethylcarbamoyl]phenoxy]pyridine-3-carbonyl]amino]-5,5-dimethyl-hexanoic acid], 10 to 250 nM.

For the origin of these results see patent US20250345446A1 (Draupnir Bio ApS, priority 2022, published 2025).
